According to patent US20180155451A1 (published 2018):

T1: FcγRIIb extracellular domain with C-terminal His tag (human, UniProt P31994 43-217)
T1 construct: extracellular domain; also called FcgRIIb; 2b; not shown: His tag at the C terminus
T1 sequence (looked up): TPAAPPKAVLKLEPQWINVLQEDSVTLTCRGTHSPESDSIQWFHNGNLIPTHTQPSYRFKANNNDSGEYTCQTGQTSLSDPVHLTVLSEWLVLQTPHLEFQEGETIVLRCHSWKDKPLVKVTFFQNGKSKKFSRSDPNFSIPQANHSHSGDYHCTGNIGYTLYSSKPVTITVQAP

T2: FcγRIIb extracellular domain with C-terminal His tag (human, UniProt P31994 43-217)
T2 construct: extracellular domain; Soluble receptor expressed in FreeStyle293 cells, used as analyte in Biacore; also called FcgRIIb; CD32B; not shown: His tag at the C terminus
T2 sequence (looked up): T1 sequence (looked up)

B1: GpH7-A5/GpH7-B3 variant S298_08L/GpL16-k0 (antibody, human IgG1, kappa)
heavy 1: not shown
heavy 2: not shown
light: DIVMTQSPLSLPVTPGEPASISCQASESLVHSNRNTYLHWYLQKPGQSPQLLIYKVSNRFSGVPDRFSGSGSGTDFTLKISRVEAEDVGVYYCSQNTHVPPTFGQGTKVEIERTVAAPSVFIFPPSDEQLKSGTASVVCLLNNFYPREAKVQWKVDNALQSGNSQESVTEQDSKDSTYSLSSTLTLSKADYEKHKVYACEVTHQGLSSPVTKSFNRGEC
notes: Heterodimerized anti-glypican-3 IgG1; the substitution stands in the GpH7-B3 chain only; also called He Ab
B2: GpH7-A5/GpH7-B3 variant S298_06M/GpL16-k0 (antibody, human IgG1, kappa)
heavy 1: not shown
heavy 2: not shown
light: B1 light
notes: as for B1
B3: GpH7-A5/GpH7-B3 variant Y300_19Q/GpL16-k0 (antibody, human IgG1, kappa)
heavy 1: not shown
heavy 2: not shown
light: B1 light
notes: as for B1
B4: GpH7-A5/GpH7-B3 variant S267_19Q/GpL16-k0 (antibody, human IgG1, kappa)
heavy 1: not shown
heavy 2: not shown
light: B1 light
notes: as for B1
B5: GpH7-A5/GpH7-B3 variant P271_06M/GpL16-k0 (antibody, human IgG1, kappa)
heavy 1: not shown
heavy 2: not shown
light: B1 light
notes: Heterodimerized anti-glypican-3 IgG1; substitution in only one H chain; also called P271M; He Ab
B6: GpH7-A5/GpH7-B3 variant P271_11K/GpL16-k0 (antibody, human IgG1, kappa)
heavy 1: not shown
heavy 2: not shown
light: B1 light
notes: Heterodimerized anti-glypican-3 IgG1; substitution in only one H chain; also called P271K; He Ab
B7: GpH7-A5/GpH7-B3 variant Q295_06M/GpL16-k0 (antibody, human IgG1, kappa)
heavy 1: not shown
heavy 2: not shown
light: B1 light
notes: Heterodimerized anti-glypican-3 IgG1; substitution in only one H chain; also called Q295M; He Ab
B8: GpH7-A5/GpH7-B3 variant P271_07I/GpL16-k0 (antibody, human IgG1, kappa)
heavy 1: not shown
heavy 2: not shown
light: B1 light
notes: Heterodimerized anti-glypican-3 IgG1; substitution in only one H chain; also called P271I; He Ab
B9: GpH7-A5/GpH7-B3 variant P271_12R/GpL16-k0 (antibody, human IgG1, kappa)
heavy 1: not shown
heavy 2: not shown
light: B1 light
notes: Heterodimerized anti-glypican-3 IgG1; substitution in only one H chain; also called P271R; He Ab
B10: GpH7-A5/GpH7-B3 variant P271_15Y/GpL16-k0 (antibody, human IgG1, kappa)
heavy 1: not shown
heavy 2: not shown
light: B1 light
notes: Heterodimerized anti-glypican-3 IgG1; substitution in only one H chain; also called P271Y; He Ab
B11: GpH7-A5/GpH7-B3 variant P271_18N/GpL16-k0 (antibody, human IgG1, kappa)
heavy 1: not shown
heavy 2: not shown
light: B1 light
notes: Heterodimerized anti-glypican-3 IgG1; substitution in only one H chain; also called P271N; He Ab
B12: GpH7-A5/GpH7-B3 variant Q295_07I/GpL16-k0 (antibody, human IgG1, kappa)
heavy 1: not shown
heavy 2: not shown
light: B1 light
notes: Heterodimerized anti-glypican-3 IgG1; substitution in only one H chain; also called Q295I; He Ab
B13: GpH7-A5/GpH7-B3 variant P271_19Q/GpL16-k0 (antibody, human IgG1, kappa)
heavy 1: not shown
heavy 2: not shown
light: B1 light
notes: Heterodimerized anti-glypican-3 IgG1; substitution in only one H chain; also called P271Q; He Ab
B14: GpH7-A5/GpH7-B3 variant Q295_02A/GpL16-k0 (antibody, human IgG1, kappa)
heavy 1: not shown
heavy 2: not shown
light: B1 light
notes: Heterodimerized anti-glypican-3 IgG1; substitution in only one H chain; also called Q295A; He Ab
B15: GpH7-A5/GpH7-B3 variant P271_13S/GpL16-k0 (antibody, human IgG1, kappa)
heavy 1: not shown
heavy 2: not shown
light: B1 light
notes: Heterodimerized anti-glypican-3 IgG1; substitution in only one H chain; also called P271S; He Ab
B16: GpH7-A5/GpH7-B3 variant P271_16H/GpL16-k0 (antibody, human IgG1, kappa)
heavy 1: not shown
heavy 2: not shown
light: B1 light
notes: Heterodimerized anti-glypican-3 IgG1; substitution in only one H chain; also called P271H; He Ab
B17: GpH7-A5/GpH7-B3 variant P271_20W/GpL16-k0 (antibody, human IgG1, kappa)
heavy 1: not shown
heavy 2: not shown
light: B1 light
notes: Heterodimerized anti-glypican-3 IgG1; substitution in only one H chain; also called P271W; He Ab
B18: GpH7-A5/GpH7-B3 variant Q295_03V/GpL16-k0 (antibody, human IgG1, kappa)
heavy 1: not shown
heavy 2: not shown
light: B1 light
notes: Heterodimerized anti-glypican-3 IgG1; substitution in only one H chain; also called Q295V; He Ab
B19: GpH7-A5/GpH7-B3 variant Q295_05P/GpL16-k0 (antibody, human IgG1, kappa)
heavy 1: not shown
heavy 2: not shown
light: B1 light
notes: Heterodimerized anti-glypican-3 IgG1; substitution in only one H chain; also called Q295P; He Ab
B20: GpH7-A5/GpH7-B3 variant P271_14T/GpL16-k0 (antibody, human IgG1, kappa)
heavy 1: not shown
heavy 2: not shown
light: B1 light
notes: Heterodimerized anti-glypican-3 IgG1; substitution in only one H chain; also called P271T; He Ab
B21: GpH7-A5/GpH7-B3 variant Q295_04F/GpL16-k0 (antibody, human IgG1, kappa)
heavy 1: not shown
heavy 2: not shown
light: B1 light
notes: Heterodimerized anti-glypican-3 IgG1; substitution in only one H chain; also called Q295F; He Ab

These binders were tested against T3, FcγRIIIa extracellular domain with C-terminal His tag (human, UniProt P08637 17-208) (assay: SPR (Biacore), antibody captured on antigen peptide chip, FcγR as analyte; relative binding amount).
T3 construct: extracellular domain; also called FcgRIIIa; 3a; not shown: His tag at the C terminus
Method: (§1) Analysis of interaction between objective antibody and the FcγR was carried out using Biacore T100 (GE Healthcare). HBS-EP+ (GE Healthcare) was used as the running buffer, and the measurement temperature was set to 25° C. Chips produced by immobilizing the antigen peptide by the amine coupling method to a Series S Sencor Chip CM5 (GE Healthcare), or alternatively, chips produced by allowing preliminarily biotinylated antigen peptides to interact with and immobilize onto a Series S Sensor Chip SA (certified) (GE Healthcare) were used. Antibodies of interest were captured onto an antigen peptide-immobilized chip, and allowed to interact to each FcγR diluted with running buffer. To regenerate and repeatedly use the chip, the antibodies captured on the chip were washed off by reacting 10 mM glycine-HCl, pH 1.5.
(§2) The FcγR-binding activity of each antibody was assessed primarily using as an indicator the FcγR-binding activity and dissociation constant for FcγR.

T3 sequence (P08637 17-208): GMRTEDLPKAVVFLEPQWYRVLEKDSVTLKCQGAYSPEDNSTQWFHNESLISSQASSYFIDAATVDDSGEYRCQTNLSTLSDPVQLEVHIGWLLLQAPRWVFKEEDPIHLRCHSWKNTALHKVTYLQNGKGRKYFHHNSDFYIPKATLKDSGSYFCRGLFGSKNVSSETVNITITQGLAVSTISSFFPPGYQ

He/Con_3a	Binder
73.5 % of GpH7-A5/GpH7-B3/GpL16-k0 (=100)	B1
92.6 % of GpH7-A5/GpH7-B3/GpL16-k0 (=100)	B2
96.3 % of GpH7-A5/GpH7-B3/GpL16-k0 (=100)	B3
65 % of GpH7-A5/GpH7-B3/GpL16-k0 (=100)	B4

Each binder was assayed against T1, FcγRIIb extracellular domain with … in the same assay as above.
Method: as §1, §2

He/Con_2b	Binder
108 % of GpH7-A5/GpH7-B3/GpL16-k0 (=100)	B1
102 % of GpH7-A5/GpH7-B3/GpL16-k0 (=100)	B2
108 % of GpH7-A5/GpH7-B3/GpL16-k0 (=100)	B3
218 % of GpH7-A5/GpH7-B3/GpL16-k0 (=100)	B4

These binders were tested against T4, FcγRIa extracellular domain with C-terminal His tag (human, UniProt P12314 16-292) (assay: SPR (Biacore), antibody captured via antigen peptide, FcγR as analyte; binding relative to GpH7-A5/GpH7-B3/GpL16-k0 = 100).
T4 construct: extracellular domain; Soluble receptor expressed in FreeStyle293 cells, used as analyte in Biacore; also called FcgRI; CD64; not shown: His tag at the C terminus
T4 sequence (P12314 16-292): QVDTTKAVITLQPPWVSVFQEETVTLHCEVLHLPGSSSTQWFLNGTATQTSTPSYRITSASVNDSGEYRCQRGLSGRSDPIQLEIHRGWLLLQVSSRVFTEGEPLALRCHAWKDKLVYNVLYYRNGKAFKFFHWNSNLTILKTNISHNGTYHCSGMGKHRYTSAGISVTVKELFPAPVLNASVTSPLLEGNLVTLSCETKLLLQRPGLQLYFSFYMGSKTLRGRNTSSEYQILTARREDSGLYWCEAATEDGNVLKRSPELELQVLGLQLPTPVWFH

He/Con_1a	Binder
102 % of control (GpH7-A5/GpH7-B3/GpL16-k0 = 100)	B5
103 % of control (GpH7-A5/GpH7-B3/GpL16-k0 = 100)	B6
104 % of control (GpH7-A5/GpH7-B3/GpL16-k0 = 100)	B7
102 % of control (GpH7-A5/GpH7-B3/GpL16-k0 = 100)	B8
102 % of control (GpH7-A5/GpH7-B3/GpL16-k0 = 100)	B9
103 % of control (GpH7-A5/GpH7-B3/GpL16-k0 = 100)	B10
103 % of control (GpH7-A5/GpH7-B3/GpL16-k0 = 100)	B11
103 % of control (GpH7-A5/GpH7-B3/GpL16-k0 = 100)	B12
103 % of control (GpH7-A5/GpH7-B3/GpL16-k0 = 100)	B13
104 % of control (GpH7-A5/GpH7-B3/GpL16-k0 = 100)	B14
102 % of control (GpH7-A5/GpH7-B3/GpL16-k0 = 100)	B15
102 % of control (GpH7-A5/GpH7-B3/GpL16-k0 = 100)	B16
103 % of control (GpH7-A5/GpH7-B3/GpL16-k0 = 100)	B17
104 % of control (GpH7-A5/GpH7-B3/GpL16-k0 = 100)	B18
103 % of control (GpH7-A5/GpH7-B3/GpL16-k0 = 100)	B19
102 % of control (GpH7-A5/GpH7-B3/GpL16-k0 = 100)	B20
102 % of control (GpH7-A5/GpH7-B3/GpL16-k0 = 100)	B21

What follows are binders tested against T2, FcγRIIb extracellular domain with … in the same assay as above.

He/Con_2b	Binder
77.5 % of control (GpH7-A5/GpH7-B3/GpL16-k0 = 100)	B5
90.2 % of control (GpH7-A5/GpH7-B3/GpL16-k0 = 100)	B6
90.4 % of control (GpH7-A5/GpH7-B3/GpL16-k0 = 100)	B7
76.8 % of control (GpH7-A5/GpH7-B3/GpL16-k0 = 100)	B8
86.5 % of control (GpH7-A5/GpH7-B3/GpL16-k0 = 100)	B9
52.3 % of control (GpH7-A5/GpH7-B3/GpL16-k0 = 100)	B10
93.3 % of control (GpH7-A5/GpH7-B3/GpL16-k0 = 100)	B11
84.3 % of control (GpH7-A5/GpH7-B3/GpL16-k0 = 100)	B12
88.6 % of control (GpH7-A5/GpH7-B3/GpL16-k0 = 100)	B13
79.7 % of control (GpH7-A5/GpH7-B3/GpL16-k0 = 100)	B14
87.6 % of control (GpH7-A5/GpH7-B3/GpL16-k0 = 100)	B15
67.9 % of control (GpH7-A5/GpH7-B3/GpL16-k0 = 100)	B16
58.1 % of control (GpH7-A5/GpH7-B3/GpL16-k0 = 100)	B17
75.7 % of control (GpH7-A5/GpH7-B3/GpL16-k0 = 100)	B18
67.5 % of control (GpH7-A5/GpH7-B3/GpL16-k0 = 100)	B19
95.4 % of control (GpH7-A5/GpH7-B3/GpL16-k0 = 100)	B20
64.7 % of control (GpH7-A5/GpH7-B3/GpL16-k0 = 100)	B21
